According to patent publication US20170204184A1 (CB THERAPEUTICS, published 2017):

B1: ch5G11-hIgG1 (antibody)
heavy: not shown
light: SIVMTQTPKFLLVSAGDRVTITCKASQSVSNDVAWYQQKPGQSPKLLIYYAANRYTGVPDRFTGSGYGTDFTFTISIVQAEDLAVYFCQQDYTSPYTFGGGTKLEIKRTVAAPSVFIFPPSDEQLKSGTASVVCLLNNFYPREAKVQWKVDNALQSGNSQESVTEQDSKDSTYSLSSTLTLSKADYEKHKVYACEVTHQGLSSPVTKSFNRGEC
notes: Mouse-human chimeric IgG1 (D265A), human kappa; also called Chimeric 5G11-IgG1 (D265A); ch-5G11-IgG1
B2: ch5G11-hIgG4 (antibody)
heavy: not shown
light: B1 light
notes: Mouse-human chimeric IgG4 (F234A/L235A), human kappa; also called Chimeric 5G11-IgG4 (F234A/L235A); ch-5G11-IgG4
B3: hu5G11-hIgG1 (antibody)
heavy: not shown
light: DIQMTQSPSSLSASVGDRVTITCKASQSVSNDVAWYQQKPGKAPKLLIYYAANRYTGVPDRFSGSGYGTDFTFTISSLQPEDIATYFCQQDYTSPYTFGQGTKLEIKRTVAAPSVFIFPPSDEQLKSGTASVVCLLNNFYPREAKVQWKVDNALQSGNSQESVTEQDSKDSTYSLSSTLTLSKADYEKHKVYACEVTHQGLSSPVTKSFNRGEC
notes: Humanized IgG1 with D265A; also called Humanized 5G11-IgG1 (D265A); hu-5G11-IgG1
B4: hu5G11-hIgG4 (antibody)
heavy: not shown
light: B3 light
notes: Humanized IgG4 with F234A and L235A; also called Humanized 5G11-IgG4 (F234A/L235A); hu-5G11-IgG4
B5: hu13C5-hIgG1 (antibody)
heavy: not shown
light: DIVLTQSPASLAVSPGQRATITCRASQSVSTSSSSFMHWYQQKPGQPPKLLIKYASNLESGVPARFSGSGSGTDFTLTINPVEANDTANYYCQHSWEIPYTFGQGTKLEIKRTVAAPSVFIFPPSDEQLKSGTASVVCLLNNFYPREAKVQWKVDNALQSGNSQESVTEQDSKDSTYSLSSTLTLSKADYEKHKVYACEVTHQGLSSPVTKSFNRGEC
notes: Humanized IgG1 with D265A; also called Humanized 13C5-IgG1 (D265A); hu-13C5-IgG1
B6: hu13C5-hIgG4 (antibody)
heavy: not shown
light: B5 light
notes: Humanized IgG4 with F234A and L235A; also called Humanized 13C5-IgG4 (F234A/L235A); hu-13C5-IgG4
B7: hu5G11 (antibody)
VH: QITLKESGPTLVKPTQTLTLTCTVSGFSLSTYGVHWIRQPPGKALEWLGVIWRGVTTDYNAAFMSRLTITKDNSKNQVVLTMNNMDPVDTATYYCARLGFYAMDYWGQGTLVTVSS
light: B3 light
B8: hu13C5 (antibody)
VH: EVQLVESGGGLVKPGGSLRLSCAASGFIFRSYGMSWVRQAPGKGLEWVASISSGGSTYYPDSVKGRFTISRDNAKNSLYLQMNSLRAEDTAVYDCARGYDSGFAYWGQGTLVTVSS
light: B5 light

What was measured:
PD-L1 on 293T cells [1] = molecular target: T1, PD-L1 on 293T cells (UniProt Q9NZQ7 19-290); experiment: flow cytometry on PD-L1-293T cells
T1 construct: whole, on cells; also called PD-L1-293T; 293T-PD-L1 cells
Experimental: Cell binding analyses of anti-PD-L1 antibodies were performed based on binding to a 293T cell line stably expressing PD-L1 (PD-L1-293T). 2×10⁵ 293T-PD-L1 cells were added into each well of 96-well culture plates and incubated with the indicated antibody (20 μg/ml with the dilution of 1:5) at 4° C. for 1 h. After the cells were washed three times with FACS buffer, the secondary antibody (PE Goat anti-mouse: 1:200; PE mouse anti-human: 1:10) was added to the cells at 100 μl/well, and incubated at 4° C. for 40 min. Cells were washed three times with FACS buffer and analyzed by FACS Array.

hPD-L1-mFc = molecular target: T2, hPD-L1-mFc (human); experiment: ELISA, coated PD-L1-mFc
T2 construct: it may hold a signal peptide; also called human PD-L1-mFc; PD-L1-mFc (Crownbio)
Experimental: ELISA binding analyses were conducted based on human PD-L1-mFc (for chimeric and humanized antibody detection) and PD-L1-hFc protein (for hybridoma antibody detection). 96-well plates (Costar, Cat No: 9018) were coated with 100 μL of 2 μg/ml PD-L1-mFc (Crownbio) in coating buffer PBS (Hyclone, Cat No: SH30256.01B) overnight at 4° C. The wells were aspirated and non-specific binding sites were blocked by adding 200 μL of blocking buffer (PBS with 1% (w/v) of bovine serum albumin (BSA, Roche, Cat No:738328)) and incubating for 1 hour at 37° C. After the plates were washed three times with wash buffer (PBS with 0.05% (v/v) Tween20 (Sigma, Cat No:P1379)), 100 μL/well of 1:10 serial dilutions of hybridoma (FIG. 1), chimeric (FIG. 2), or humanized (FIG. 3) anti-PD-L1 antibodies in blocking buffer (starting from 20 μg/mL) were added and incubated at room temperature for 1 hour. The plates were washed and incubated with 100 μL/well of Goat anti-Mouse IgG (H+L) (Thermo, Cat No: 31432) in blocking buffer for 60 min. After the plates were washed, 100 μL/well of substrate solution TMB (eBioscience, Cat No: 00-4201-56) were added and the plates were incubated for 2 min at room temperature. 100 μL/well of stop solution (2N H₂SO₄) was added to stop the reaction. The colorimetric signals were developed and read at 450 nm using an Auto Plate SpectraMax Plus (Supplier: Moleculer Devices; Model: MNR0643; Software: SoftMax Pro v5.4). Data were analyzed using GraphPad Prism 5 and EC50 was calculated (FIGS. 1-3; Tables 5-7).

PD-L1 on 293T cells [2] = molecular target: T1, PD-L1 on 293T cells; experiment: flow cytometry competition: blocks biotin-labeled PD-1 binding to PD-L1-293T cells
Experimental: Briefly, PD-L1-293T cells were suspended in FACS buffer (PBS with 3% fetal calf serum). Various concentrations of the hybridoma (FIG. 10), chimeric (FIG. 11), or humanized (FIG. 12) anti-PD-L1 antibodies were added to the cell suspension and incubated at 4° C. for 60 minutes in 96 well plates. […] The cells were washed 3 times with PBS and incubated with mouse anti-biotin PE (Biolegend, cat# 409004). The cell-associated fluorescence was then detected by flow cytometry analysis using FACS array.

[3] = molecular target: T3, biotinylated human PD-L1-mFc (human, biotinylated (sites not given)); experiment: competition ELISA: blocks PD-L1-mFc-biotin binding to coated PD-1-hFc
T3 construct: also called PDL-1-mFc-biotin
Experimental: The wells were aspirated and non-specific binding sites were blocked by adding 200 μL of blocking buffer (PBS with 1% (w/v) of bovine serum albumin (BSA, Roche, Cat No:738328)) and incubating for 1 hour at 37° C. After the plate was washed three times with wash buffer (PBS with 0.05% (v/v) Tween20 (Sigma, Cat No:P1379)), 100 μL/well of 1:3 serial dilutions of hybridoma (FIG. 4), chimeric (FIG. 5), or humanized (FIG. 6) anti-PD-L1 antibodies in blocking buffer (starting from 20 μg/mL) were added and incubated at 37° C. for 1 hour. […] After the plate was washed 3 times, secondary antibody (Avidin HRP eBioscience cat No.: E07418-1632, 1:500, 100 μl/well) was added and incubated at 37° C. for 0.5 hour. After the plate was washed, 100 μL/well of substrate solution TMB (eBioscience, Cat No: 00-4201-56) was added and the plate was incubated for 3min at room temperature. 100 μL/well of stop solution (2N H₂SO₄) was added to stop the reaction. The colorimetric signals were developed and read at 450 nm using an Auto Plate SpectraMax Plus (Supplier: Moleculer Devices; Model: MNR0643; Software: SoftMax Pro v5.4). Data were analyzed using GraphPad Prism 5 and IC50 was calculated (FIGS. 4-6; Tables 8-10).

Human PD-L1 = molecular target: T4, Human PD-L1 (human, UniProt Q9NZQ7 19-238, limits assumed); experiment: SPR (Biacore 3000), antibody captured, PD-L1 as analyte, 1:1 fit
T4 construct: also called PD-L1 analyte (Biacore); hPD-L1
Experimental: (§1) The binding kinetics between PD-L1 and PD-L1 antibodies were measured by Biacore analysis, which was performed at 25° C. on a Biacore3000 instrument and recorded with a data collection rate of 1 Hz. Polyclonal rabbit anti-mouse IgG (GE, BR-1008-38) was diluted with 10 mM pH 5.0 sodium acetate and immobilized onto reference and experiment flow cells of a CM5 biosensor chip to around 15000 RU using an amine coupling kit (GE, BR10050). […] PD-L1 analyte series were prepared by diluting the stocks with running buffer to 100 nM followed by 2× serial dilution in the same buffer down to 0.78 nM. Analytes were injected in series over the reference and experiment flow cells for 3 minutes at a flow rate of 30 μL/minute. Running buffer (PBS with 0.05% P20) was allowed to flow over for 10 minutes at a flow rate of 30 μL/minute. At the end of each cycle, the biosensor surface was regenerated with 3 minutes injection of 10 mM pH1.7 Glycine-HCl buffer at a flow rate of 10 μL/minute. For each analyte sample injection (i.e. each cycle), binding responses obtained from the experimental biosensor surface were double referenced by subtracting simultaneously recorded responses from the reference surface followed by additional subtraction of responses from a single referenced running buffer sample. The association and dissociation rate constants (ka and kd) were determined simultaneously by fitting double-referenced sensorgrams of the entire titration series to Langmuir model (1:1) using Biaevaluation 4.0 software. The dissociation constant, KD, was calculated from the determined rate constants by the relation KD=kd/ka.

cynomolgus PD-L1 = molecular target: T5, cynomolgus PD-L1 (cynomolgus, UniProt G7PSE7 19-238); experiment: as above
T5 construct: also called Cyno-PD-L1; cyno-PD-L1; not shown: Any tag or Fc carrier on the soluble cynomolgus PD-L1 analyte
Experimental: as §1

Row | Binder | EC50 (PD-L1 on 293T cells [1]) | EC50 (hPD-L1-mFc) | IC50 (PD-L1 on 293T cells [2]) | IC50 [3] | Kd (Human PD-L1) | Kd (cynomolgus PD-L1)
1 | B1 | 0.0583 µg/mL | 0.0821 µg/mL | 0.0404 µg/mL | 1.01 µg/mL |  | 
2 | B2 | 0.0897 µg/mL | 0.09 µg/mL | 0.0332 µg/mL | 0.926 µg/mL |  | 
3 | B3 | 0.0479 µg/mL | 0.0495 µg/mL | 0.0165 µg/mL | 0.794 µg/mL |  | 
4 | B4 | 0.0543 µg/mL | 0.0699 µg/mL | 0.0096 µg/mL | 0.823 µg/mL |  | 
5 | B5 | 0.08 µg/mL | 0.0856 µg/mL | 0.0185 µg/mL | 1.2 µg/mL |  | 
6 | B6 | 0.0804 µg/mL | 0.127 µg/mL | 0.0499 µg/mL | 1.19 µg/mL |  | 
7 | B7 |  |  |  |  | 0.225 nM | 0.275 nM
8 | B8 |  |  |  |  | 1.74 nM | 2.43 nM
